This note sets out measurements from PMC3907290, “De Novo Prediction of PTBP1 Binding and Splicing Targets Reveals Unexpected Features of Its RNA Recognition and Function”.

The series concerns the target PTBP1 (Homo sapiens, UniProt P26599 1-557). As to the kind of experiment: EMSA; apparent Kd; tRNA competitor; EMSA, 10 uL: 6 uL DG buffer (20 mM Hepes-KOH pH 7.9, 20% glycerol, 80 mM K-glutamate, 0.2 mM EDTA, 0.2 mM PMSF), about 2.2 mM MgCl2, 0.05 mg/ml tRNA, RNaseOut. The following applies: protein: recombinant; label: 32P (alpha-32P UTP, internal). On the technique in general: A gel shift assay detects complexes by their altered migration in electrophoresis.

PTBP1, sequence (P26599 whole entry): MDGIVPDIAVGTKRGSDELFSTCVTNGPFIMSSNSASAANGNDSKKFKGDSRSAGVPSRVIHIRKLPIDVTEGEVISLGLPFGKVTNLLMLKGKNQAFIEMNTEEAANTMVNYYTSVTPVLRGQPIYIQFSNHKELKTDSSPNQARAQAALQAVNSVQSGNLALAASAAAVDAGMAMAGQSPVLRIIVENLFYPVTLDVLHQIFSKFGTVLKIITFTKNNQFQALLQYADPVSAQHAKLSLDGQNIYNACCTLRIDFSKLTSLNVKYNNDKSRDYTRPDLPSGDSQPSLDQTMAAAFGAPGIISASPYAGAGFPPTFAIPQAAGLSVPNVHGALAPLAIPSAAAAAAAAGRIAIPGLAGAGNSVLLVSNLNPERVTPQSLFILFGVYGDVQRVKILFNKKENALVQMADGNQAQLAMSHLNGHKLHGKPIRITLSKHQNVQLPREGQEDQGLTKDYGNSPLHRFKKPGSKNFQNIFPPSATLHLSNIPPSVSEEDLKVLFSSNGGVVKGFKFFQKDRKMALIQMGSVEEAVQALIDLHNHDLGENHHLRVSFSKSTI

B1: probe 10 (ssRNA)
RNA: GUGAGGGCUCUUUCUUCGUGGGACCGUAGAUAGGUAGCUGCUGCUGGUCUCACACUGUUCUCCCUACAG
Turning to B1, the Kd was 73 nM.
